Measurements reported in PMC5700991, “Cryo-EM structure of Saccharomyces cerevisiae target of rapamycin complex 2” (Nature Communications, 2017).

T1: Avo1 (S. cerevisiae, UniProt Q08236 1-1176)
T1 construct: Avo1 of S. cerevisiae (ortholog of hSin1); CRIM domain (residues 647-792 in the model; aa 638-786 in the methods), PH domain (aa 1076-1176); Poorly resolved in the map; only a homology model of the CRIM domain was fitted at a low contour level; source: endogenous, S. cerevisiae cell extract (Bit61-TAP strain lacking Bit2); purified as part of TORC2 on IgG-coated dynabeads, released with TEV …
T1 sequence (looked up): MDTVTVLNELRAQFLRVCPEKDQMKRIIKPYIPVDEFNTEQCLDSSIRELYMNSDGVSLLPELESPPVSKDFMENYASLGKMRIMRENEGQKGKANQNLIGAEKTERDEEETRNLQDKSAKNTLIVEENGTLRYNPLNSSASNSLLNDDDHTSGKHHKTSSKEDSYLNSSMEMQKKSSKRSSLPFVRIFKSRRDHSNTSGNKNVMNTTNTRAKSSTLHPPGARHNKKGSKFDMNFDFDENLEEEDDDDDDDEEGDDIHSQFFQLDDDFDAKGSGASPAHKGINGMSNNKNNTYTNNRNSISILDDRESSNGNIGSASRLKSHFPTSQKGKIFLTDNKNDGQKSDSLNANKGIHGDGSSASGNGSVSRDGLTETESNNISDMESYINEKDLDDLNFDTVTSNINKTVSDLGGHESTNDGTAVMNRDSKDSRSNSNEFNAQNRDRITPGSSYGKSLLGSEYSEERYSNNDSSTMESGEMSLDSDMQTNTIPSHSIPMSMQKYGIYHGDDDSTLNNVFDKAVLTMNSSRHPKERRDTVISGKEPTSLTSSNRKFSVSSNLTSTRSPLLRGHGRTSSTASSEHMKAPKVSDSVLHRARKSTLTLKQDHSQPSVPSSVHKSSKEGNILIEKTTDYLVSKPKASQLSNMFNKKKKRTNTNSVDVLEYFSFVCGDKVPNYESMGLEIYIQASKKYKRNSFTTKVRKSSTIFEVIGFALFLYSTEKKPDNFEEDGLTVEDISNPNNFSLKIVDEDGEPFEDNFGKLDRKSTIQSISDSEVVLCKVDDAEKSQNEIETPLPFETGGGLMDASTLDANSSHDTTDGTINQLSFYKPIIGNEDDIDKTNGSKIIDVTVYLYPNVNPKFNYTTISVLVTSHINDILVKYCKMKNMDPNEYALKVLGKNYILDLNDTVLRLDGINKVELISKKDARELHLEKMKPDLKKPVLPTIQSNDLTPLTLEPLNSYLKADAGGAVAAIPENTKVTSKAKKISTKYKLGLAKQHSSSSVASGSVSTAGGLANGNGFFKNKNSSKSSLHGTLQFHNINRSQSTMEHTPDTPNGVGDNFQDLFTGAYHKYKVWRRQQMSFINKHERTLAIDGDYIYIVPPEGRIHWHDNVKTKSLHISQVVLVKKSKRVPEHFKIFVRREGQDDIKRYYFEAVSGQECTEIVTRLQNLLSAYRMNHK

T2: Avo3 (S. cerevisiae, UniProt P40061 1-1430)
T2 construct: Avo3 of S. cerevisiae (ortholog of Rictor); armadillo-like helical domain in its middle part; Only 17 individual helices are modelled; they are not tied to residue numbers in the text; source: endogenous, S. cerevisiae cell extract (Bit61-TAP strain lacking Bit2); purified as part of TORC2 on IgG-coated dynabeads, released with TEV protease
T2 sequence (looked up): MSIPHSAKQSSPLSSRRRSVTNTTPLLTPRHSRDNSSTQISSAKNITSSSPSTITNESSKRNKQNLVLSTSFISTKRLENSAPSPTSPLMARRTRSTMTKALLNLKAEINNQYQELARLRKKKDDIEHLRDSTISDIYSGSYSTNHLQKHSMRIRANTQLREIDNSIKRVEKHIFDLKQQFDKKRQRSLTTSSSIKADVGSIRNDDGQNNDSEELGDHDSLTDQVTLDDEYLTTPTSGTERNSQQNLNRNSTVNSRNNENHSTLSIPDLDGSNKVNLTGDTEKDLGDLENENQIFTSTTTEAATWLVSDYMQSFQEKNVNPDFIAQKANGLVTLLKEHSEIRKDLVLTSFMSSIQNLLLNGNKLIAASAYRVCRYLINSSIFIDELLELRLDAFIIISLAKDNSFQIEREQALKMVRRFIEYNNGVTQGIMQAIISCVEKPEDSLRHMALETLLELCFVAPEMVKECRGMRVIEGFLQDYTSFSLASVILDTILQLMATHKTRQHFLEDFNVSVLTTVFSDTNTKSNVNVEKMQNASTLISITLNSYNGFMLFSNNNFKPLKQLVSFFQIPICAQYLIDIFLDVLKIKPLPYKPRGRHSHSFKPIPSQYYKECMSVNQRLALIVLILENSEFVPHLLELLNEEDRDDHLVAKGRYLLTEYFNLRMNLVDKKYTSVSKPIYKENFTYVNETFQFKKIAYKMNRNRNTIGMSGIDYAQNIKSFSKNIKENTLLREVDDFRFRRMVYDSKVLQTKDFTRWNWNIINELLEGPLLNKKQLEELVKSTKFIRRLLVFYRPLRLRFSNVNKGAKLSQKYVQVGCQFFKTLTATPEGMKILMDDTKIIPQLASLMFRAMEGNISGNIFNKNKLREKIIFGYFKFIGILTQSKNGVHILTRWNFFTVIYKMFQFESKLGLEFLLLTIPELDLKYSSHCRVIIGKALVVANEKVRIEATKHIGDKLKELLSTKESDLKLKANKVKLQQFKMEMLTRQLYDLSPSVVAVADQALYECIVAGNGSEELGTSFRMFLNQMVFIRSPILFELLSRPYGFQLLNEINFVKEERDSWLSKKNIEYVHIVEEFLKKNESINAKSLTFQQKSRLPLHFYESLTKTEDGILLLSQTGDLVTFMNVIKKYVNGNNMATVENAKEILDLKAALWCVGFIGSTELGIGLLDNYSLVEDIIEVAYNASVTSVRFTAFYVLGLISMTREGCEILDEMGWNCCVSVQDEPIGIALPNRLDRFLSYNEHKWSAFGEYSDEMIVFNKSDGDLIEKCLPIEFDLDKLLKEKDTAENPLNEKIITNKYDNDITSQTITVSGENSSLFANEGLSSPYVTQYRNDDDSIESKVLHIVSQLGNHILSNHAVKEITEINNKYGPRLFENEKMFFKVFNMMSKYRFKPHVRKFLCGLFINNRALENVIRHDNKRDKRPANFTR

B1: Lst8 (natural protein, S. cerevisiae, UniProt P41318 1-303, looked up)
chain: MSVILVSAGYDHTIRFWEALTGVCSRTIQHSDSQVNRLEITNDKKLLATAGHQNVRLYDIRTTNPNPVASFEGHRGNVTSVSFQQDNRWMVTSSEDGTIKVWDVRSPSIPRNYKHNAPVNEVVIHPNQGELISCDRDGNIRIWDLGENQCTHQLTPEDDTSLQSLSMASDGSMLAAANTKGNCYVWEMPNHTDASHLKPVTKFRAHSTYITRILLSSDVKHLATCSADHTARVWSIDDDFKLETTLDGHQRWVWDCAFSADSAYLVTASSDHYVRLWDLSTREIVRQYGGHHKGAVCVALNDV
notes: Lst8 of S. cerevisiae, composed entirely of WD40 repeats (beta propeller); Two copies stand in the TORC2 complex; source: endogenous, S. cerevisiae cell extract (Bit61-TAP strain lacking Bit2); purified as part of TORC2 on IgG-coated dynabeads, released with TEV protease
B2: Avo2 (natural protein, S. cerevisiae, UniProt Q04749 1-426, looked up)
chain: MLKEPSVRLREAIIEGNLLIVKRLLRRNPDLLTNIDSENGWSSLHYASYHGRYLICVYLIQLGHDKHELIKTFKGNTCVHLALMKGHEQTLHLLLQQFPRFINHRGENGRAPIHIACMNDYYQCLSLLIGVGADLWVMDTNGDTPLHVCLEYGSISCMKMLLNEGEVSLDDNVRDKGNWKPIDVAQTFEVGNIYSKVLKEVKKKGPPLGAGKKPSSFRTPILNAKATFEDGPSPVLSMNSPYSLYSNNSPLPVLPRRISTHTTSGNGGNRRSSITNPVFNPRKPTLSTDSFSSSSNSSSRLRVNSINVKTPVGVSPKKELVSESVRHSATPTSPHNNIALINRYLLPNKSNDNVRGDSQTATINDDGGGGNGGDATIGMGLRKDPDDENENKYKIKVNNGEPRRRVSLLNIPISKLRNSNNTRAED
notes: Avo2 of S. cerevisiae; N-terminal five ankyrin repeats (residues 4-171; modelled aa 4-163); Only the ankyrin repeats are modelled in the map; source: endogenous, S. cerevisiae cell extract (Bit61-TAP strain lacking Bit2); purified as part of TORC2 on IgG-coated dynabeads, released with TEV protease
B3: Bit61-TAP (natural protein, S. cerevisiae, UniProt P47041 1-543, looked up)
chain: MTAEDILLRERTSTTTQRPVNSEQYLNVQLATAPVKNFQTTSEISRQTLVDTSNDDVYSIKNLKGSRNPISPSVSNVGFQSIFHTVDHPRSKVSVASNHSLRSNDNASAATSKSGSSQIGESHSVDTVECSNNLSKKLSSDAISITQKSLHSTPSGRYMKGKASGFFNRRNRAHTTISSDPASFLTDSSTLHNSSHSFRNVIKNFFQNKSHRHIGQDAIEPAIPNSLSKFLHSSYGRHKSPSQFIHTNAGQLVDSGTSVYSLNVNPSGVNPNTIVEDPLSGTDPASPNPVSMLHDLLRNLPSLEANYKHFNSQELTTLTNNIWNIFCSNVAELFRTQRIWKLRAKIENFNEVLEFYCILKTDPRVTHSGMNRIISDLKEFLVSSLYNLENQIVFNYSNEDTINNALKRLGVIWRIFYQEVYYDLAAVLLPLDQSIREDGNSTVLKSGNESRTHINGNYSIGFLLLMCFRDSIVLPCYENFVNSNDGISKSFQLYIFNQEEESNVTETDKLTLLQCFGILSTIQSNDRNQRIIEELLAGIRMSI
notes: Bit61 of S. cerevisiae (ortholog of Protor), subunit of TORC2; The chain was captured by the protein A part of the TAP tag and set free with TEV protease; also called TAP-tagged Bit61; source: S. cerevisiae Bit61-TAP expressing strain lacking Bit2, cell extract; captured on IgG-coated dynabeads, released with TEV protease

How the values were obtained:
Assay in all cases: cryo-EM structure; TORC2 purified from S. cerevisiae extract by protein-A affinity purification of Bit61-TAP (IgG-coated dynabeads; 50 mM HEPES pH 7.5, 0.2 mM CHAPS, 300 mM KCl, 0.5 mM DTT wash; TEV release); single-particle cryo-EM, C2 symmetry, 7.9 Å overall; homology models fitted
Tor2 (S. cerevisiae) = Tor2 (S. cerevisiae) (UniProt P32600)
Avo1 = target: T1, Avo1; details: both partners purified
Bit61-TAP = target: B3; details: both partners purified
Tor2 = target: T3, Tor2 (S. cerevisiae, UniProt P32600 1-2474); details: both partners purified
T3 construct: Tor2, Ser/Thr protein kinase of S. cerevisiae TORC2; HEAT repeats (spiral, bridge), FAT, FRB, kinase and FATC domains; Two copies stand in the TORC2 complex; The model in the map is a homology model built on the K. marxianus Tor-Lst8 structure; also called Sc Tor2; S. cerevisiae Tor2; source: endogenous, S. cerevisiae cell extract (Bit61-TAP strain lacking Bit2); purified as part of TORC2 on …
T3 sequence (P32600 whole entry, the tested form may be a part): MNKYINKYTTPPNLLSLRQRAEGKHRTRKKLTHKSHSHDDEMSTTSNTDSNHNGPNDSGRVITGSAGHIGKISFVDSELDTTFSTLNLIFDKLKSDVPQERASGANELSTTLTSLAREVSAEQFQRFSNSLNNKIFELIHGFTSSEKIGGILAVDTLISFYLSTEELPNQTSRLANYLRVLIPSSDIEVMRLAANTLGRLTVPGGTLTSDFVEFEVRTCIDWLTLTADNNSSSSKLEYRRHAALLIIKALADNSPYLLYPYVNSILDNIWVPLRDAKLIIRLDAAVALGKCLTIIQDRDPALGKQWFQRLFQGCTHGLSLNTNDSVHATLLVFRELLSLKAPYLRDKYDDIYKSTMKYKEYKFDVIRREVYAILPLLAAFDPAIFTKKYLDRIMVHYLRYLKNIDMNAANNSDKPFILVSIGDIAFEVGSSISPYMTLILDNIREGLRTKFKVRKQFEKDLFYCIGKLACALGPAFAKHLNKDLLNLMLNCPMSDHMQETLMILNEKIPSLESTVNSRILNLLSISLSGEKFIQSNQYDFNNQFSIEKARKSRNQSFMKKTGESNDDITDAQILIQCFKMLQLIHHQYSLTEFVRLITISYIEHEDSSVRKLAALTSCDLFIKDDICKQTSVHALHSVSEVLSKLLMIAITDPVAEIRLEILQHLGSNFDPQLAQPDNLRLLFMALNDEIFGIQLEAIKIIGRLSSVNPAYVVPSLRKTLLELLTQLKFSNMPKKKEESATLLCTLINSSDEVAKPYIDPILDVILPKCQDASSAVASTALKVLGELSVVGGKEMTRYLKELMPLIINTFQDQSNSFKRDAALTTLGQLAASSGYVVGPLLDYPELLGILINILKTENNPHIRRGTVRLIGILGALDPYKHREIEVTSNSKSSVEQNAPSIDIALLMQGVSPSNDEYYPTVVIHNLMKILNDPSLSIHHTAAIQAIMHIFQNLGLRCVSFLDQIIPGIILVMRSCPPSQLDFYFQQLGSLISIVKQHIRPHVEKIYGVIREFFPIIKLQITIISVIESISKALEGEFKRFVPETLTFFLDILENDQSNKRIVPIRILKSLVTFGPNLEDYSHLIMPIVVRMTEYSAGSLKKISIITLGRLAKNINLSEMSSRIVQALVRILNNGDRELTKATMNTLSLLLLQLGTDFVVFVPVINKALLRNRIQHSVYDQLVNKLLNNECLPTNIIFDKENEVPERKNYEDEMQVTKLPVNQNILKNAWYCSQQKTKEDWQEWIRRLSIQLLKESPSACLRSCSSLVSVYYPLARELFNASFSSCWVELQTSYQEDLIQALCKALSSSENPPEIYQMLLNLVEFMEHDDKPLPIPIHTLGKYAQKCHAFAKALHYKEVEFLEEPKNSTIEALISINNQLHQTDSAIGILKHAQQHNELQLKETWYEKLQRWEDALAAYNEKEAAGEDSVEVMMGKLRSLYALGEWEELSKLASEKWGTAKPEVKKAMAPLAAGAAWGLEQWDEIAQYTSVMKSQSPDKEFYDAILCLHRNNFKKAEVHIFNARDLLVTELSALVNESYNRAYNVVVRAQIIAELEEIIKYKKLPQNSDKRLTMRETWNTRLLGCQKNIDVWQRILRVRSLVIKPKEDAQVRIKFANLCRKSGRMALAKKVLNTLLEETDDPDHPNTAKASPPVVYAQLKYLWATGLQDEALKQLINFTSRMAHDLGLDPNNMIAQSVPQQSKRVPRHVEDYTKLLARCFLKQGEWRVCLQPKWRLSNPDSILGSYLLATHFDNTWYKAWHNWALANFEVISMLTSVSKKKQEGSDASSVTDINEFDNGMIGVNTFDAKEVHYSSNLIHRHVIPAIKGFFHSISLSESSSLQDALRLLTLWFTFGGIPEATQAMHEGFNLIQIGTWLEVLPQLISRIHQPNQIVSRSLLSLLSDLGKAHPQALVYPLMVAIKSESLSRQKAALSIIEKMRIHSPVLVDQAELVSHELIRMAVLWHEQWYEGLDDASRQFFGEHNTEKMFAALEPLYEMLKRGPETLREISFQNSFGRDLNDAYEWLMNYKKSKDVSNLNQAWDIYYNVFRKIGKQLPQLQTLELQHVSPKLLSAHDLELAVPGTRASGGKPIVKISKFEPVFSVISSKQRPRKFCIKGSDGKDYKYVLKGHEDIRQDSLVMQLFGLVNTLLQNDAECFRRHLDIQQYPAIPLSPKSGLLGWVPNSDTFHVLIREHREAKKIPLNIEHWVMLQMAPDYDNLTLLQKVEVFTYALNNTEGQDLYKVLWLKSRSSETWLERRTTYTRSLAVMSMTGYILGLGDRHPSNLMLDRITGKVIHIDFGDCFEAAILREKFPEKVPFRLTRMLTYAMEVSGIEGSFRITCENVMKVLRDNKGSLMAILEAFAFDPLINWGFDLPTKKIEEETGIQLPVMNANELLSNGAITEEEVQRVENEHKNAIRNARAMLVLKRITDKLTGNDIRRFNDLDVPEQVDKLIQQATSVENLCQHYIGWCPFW

Avo3 = target: T2, Avo3; details: both partners purified

Row | Molecule | stoichiometry N (Tor2 (S. cerevisiae)) | binding result (Avo1) | binding result (Bit61-TAP) | binding result (Tor2) | binding result (Avo3)
1 | Tor2, P32600 1-2474 | 2 |  |  |  | 
2 | B1 |  | binds | binds | binds | 
3 | B2 |  |  | binds | binds | 
4 | B3 |  | binds |  | binds | binds
